Reference: US9157064B2, “Methods for generating inner ear cells in vitro” (The Board of Trustees of the Leland Stanford Junior …, priority 2011, dated 2015)
Entries after “also recorded” stand apart in the source; their conditions may differ.

Tests used:
[1] = tested on: ESC- and iPSC-derived cells; test: Differentiation cultures of D/S/I and bFGF-treated ESC- and iPSC-derived cells with added supplements; type: cell-based, mouse; conditions: differentiation cultures supplemented, data not shown
Text: Future identification of these signals could provide important clues about the mechanisms controlling the initiation of hair bundle growth during embryonic development.
Beside FGF signaling, activation of the canonical Wnt pathway has been proposed to further promote otic commitment of Pax2-expressing cells of the FGF-dependent pre-otic field of the chicken embryo (Ohyama et al., 2006).

[2] = tested on: ESC-derived embryoid bodies; test: Suppression of meso- and endodermal differentiation in ESC-derived embryoid bodies (Brachyury/GATA6 immunostaining); type: cell-based, mouse; conditions: single factor
Protocol: (§1) ES cell line C9 and iPS cell line #25-5 were used for all guidance experiments. MEF feeder cells were removed either by weaning the cells off for several passages or by pre-culturing the cells for 40 min allowing MEFs to attach. For embryoid body formation, the cells were dissociated with 0.25% trypsin-EDTA (Invitrogen) and cultured in poly(2-hydroxyethyl methacrylate)-coated 6-well cell suspension plates (Greiner). Coating was done by covering the plates with 1 ml of 2% poly(2 hydroxyethyl methacrylate) (Sigma) solution in 1:1 ethanol/acetone. After 2 min, the solution was completely aspirated and the plates were dried with open lid for 20 min in a cell culture cabinet. After three washes with PBS, the ES and iPS cells were added at a density of 50 cells/ml and cultured for 5 days in DMEM (Invitrogen) with 15% FBS, 0.1 mM MEM non-essential amino acids, […] 2-mercaptoethanol, 2 mM L-glutamine and […] ampicillin. For otic induction experiments, the following growth factors or reagents were added to the medium: recombinant mouse Dickkopf related protein 1 (Dkk-1) at 100 ng/ml (R&D Systems), SIS3 at […] (Sigma), and IGF1 at 10 ng/ml (Sigma). […]
(§2) For immunocytochemistry, the cells were fixed with 4% paraformaldehyde in PBS for 15 min at room temperature. […] Images were acquired with a Zeiss Axioimager/LSM 5 Exciter fluorescence and confocal microscope. […]

ESC-derived cultures = test: Otic induction of ESC-derived embryoid body cultures (Pax2 immunostaining); type: cell-based, mouse; conditions: D/S/I-treated ESC-derived embryoid body cells; SU5402 treatment between d5 and d8
Protocol: Embryoid bodies were transferred into fibronectin-coated 4-well dishes (Greiner) at 30 embryoid bodies per well and cultured for three days in DMEM/F12 (Invitrogen, mixed 1:1) supplemented with N2 and B27 (Invitrogen), bFGF (R&D Systems, 25 ng/ml), heparin sulfate (Sigma, 50 ng/ml), and ampicillin ([…]). FGF3 (recombinant human FGF-3, R&D Systems) and FGF10 (recombinant human FGF-10, R&D Systems) were used at 25 ng/ml in parallel experiments. The FGF receptor antagonist SU5402 (a gift from Pfizer R&D) was used at […]. After FGF-treatment, the cells were detached using 0.05% trypsin/EDTA (Sigma) in PBS, mildly triturated, and passed 1:10 into individual wells of 4-well dishes coated with either fibronectin, gelatin, MEFs, or mitotically inactivated embryonic (E18) chicken utricle stromal cells. Utricle stromal cells were prepared from 20 utricles whose sensory epithelia were removed after 40 min treatment with 0.5 mg/ml thermolysin (Sigma) in DMEM/F12 at 37 C. After addition of 5% serum, the sensory epithelia were removed and used in unrelated experiments. […]
as §2

hESCs = test: Otic induction from hESCs (PAX2-expressing otic progenitor cells); type: cell-based, human; conditions: hESC-derived cultures; factor added in the induction and/or stabilization phase (FIG. 23)
Protocol: FIG. 22. Optimization of lengths of incubations with factors for culturing cell populations comprising otic progenitor cells from hESCs. (a) and (b). A culture that is enriched 8.3% for PAX2-expressing otic progenitor cells may be generated by the incubation of hESCs with DKK1/SIS3/IFG-1 for 5 days, followed by incubation of the resultant embryoid bodies comprising preplacodal ectodermal cells with bFGF for 3 days.
FIG. 23A-C. Culturing in the presence of different factors impacts the proportion of otic progenitor cells produced. (a) Culturing in the presence of BMP4 reduces the proportion of otic progenitor cells produced. (b) Culturing in the presence of Noggin during the induction phase of otic progenitor cell fate acquisition, and restricting the exposure of cells to BMP4 to the stabilization phase of otic progenitor cell fate acquisition increases the proportion of otic progenitor cells produced. (c) Culturing in the presence of R-spondin 1 during the induction phase of otic progenitor cell fate acquisition increases the proportion of otic progenitor cells produced.
FIG. 23D. Culturing in the presence of FGF19 during both the induction phase and the stabilization phase of otic progenitor cell fate acquisition increases the proportion of otic progenitor cells produced.

[3] = tested on: iPSC-derived embryoid bodies; test: Suppression of meso- and endodermal differentiation in iPSC-derived embryoid bodies (Brachyury/GATA6 immunostaining); type: cell-based, mouse; conditions: single factor
Protocol: as §1, §2

## [Cl-].[Li+] [LiCl, reference compound]
[1]
  ability or efficiency to generate hair cell-like cells: did not observe an increase

## COc1cc2c(cc1OC)CN(C(=O)/C=C/c1c(-c3ccccc3)n(C)c3ncccc13)CC2 [SIS3, reference compound]
[2]
  number of Brachyury-positive cells, factor alone: significantly reduced

## Cc1c[nH]c(/C=C2\C(=O)Nc3ccccc32)c1CCC(=O)O [SU5402]
ESC-derived cultures
  Pax2 induction / Pax2 expression: abolishment of Pax2 induction; also recorded: virtually diminished Pax2 expression

## FGF19: fibroblast growth factor 19, ligand for FGFR4
hESCs
  proportion of otic progenitor cells produced: increases

B1: Noggin: naturally occurring inhibitor of BMP signaling (protein, UniProt Q13253 28-232, looked up)
Noggin: QHYLHIRPAPSDNLPLVDLIEHPDPIFDPKEKDLNETLLRSLLGGHYDPGFMATSPPEDRPGGGGGAAGGAEDLAELDQLLRQRPSGAMPSEIKGLEFSEGLAQGKKQRLSKKLRRKLQMWLWSQTFCPVLYAWNDLGSRFWPRYVKVGSCFSKRSCSVPEGMVCKPSKSVHLTVLRWRCQRRGGQRCGWIPIQYPIISECKCSC
hESCs
  proportion of otic progenitor cells produced: increases

B2: Wnt3a: recombinant Wnt3a (protein, UniProt P56704 19-352, looked up)
Protein Wnt-3a: SYPIWWSLAVGPQYSSLGSQPILCASIPGLVPKQLRFCRNYVEIMPSVAEGIKIGIQECQHQFRGRRWNCTTVHDSLAIFGPVLDKATRESAFVHAIASAGVAFAVTRSCAEGTAAICGCSSRHQGSPGKGWKWGGCSEDIEFGGMVSREFADARENRPDARSAMNRHNNEAGRQAIASHMHLKCKCHGLSGSCEVKTCWWSQPDFRAIGDFLKDKYDSASEMVVEKHRESRGWVETLRPRYTYFKVPTERDLVYYEASPNFCEPNPETGSFGTRDRTCNVSSHGIDGCDLLCCGRGHNARAERRREKCRCVFHWCCYVSCQECTRVYDVHTCK
[1]
  ability or efficiency to generate hair cell-like cells: did not observe an increase

B3: R-spondin 1: Roof plate-specific Spondin 1, natural enhancer of the canonical Wnt pathway (protein, UniProt Q2MKA7 21-263, looked up)
R-spondin-1: SRGIKGKRQRRISAEGSQACAKGCELCSEVNGCLKCSPKLFILLERNDIRQVGVCLPSCPPGYFDARNPDMNKCIKCKIEHCEACFSHNFCTKCKEGLYLHKGRCYPACPEGSSAANGTMECSSPAQCEMSEWSPWGPCSKKQQLCGFRRGSEERTRRVLHAPVGDHAACSDTKETRRCTVRRVPCPEGQKRRKGGQGRRENANRNLARKESKEAGAGSRRRKGQQQQQQQGTVGPLTSAGPA
hESCs
  proportion of otic progenitor cells produced: increases

B4: BMP4: activator of BMP signaling (protein, UniProt P12644 293-408, looked up)
Bone morphogenetic protein 4: SPKHHSQRARKKNKNCRRHSLYVDFSDVGWNDWIVAPPGYQAFYCHGDCPFPLADHLNSTNHAIVQTLVNSVNSSIPKACCVPTELSAISMLYLDEYDKVVLKNYQEMVVEGCGCR
hESCs
  proportion of otic progenitor cells produced: reduces

B5: Dkk1: recombinant mouse Dickkopf related protein 1, Wnt inhibitor (protein, UniProt O54908 32-272, looked up)
Dickkopf-related protein 1: TLNSVLINSNAIKNLPPPLGGAGGQPGSAVSVAPGVLYEGGNKYQTLDNYQPYPCAEDEECGSDEYCSSPSRGAAGVGGVQICLACRKRRKRCMRHAMCCPGNYCKNGICMPSDHSHFPRGEIEESIIENLGNDHNAAAGDGYPRRTTLTSKIYHTKGQEGSVCLRSSDCAAGLCCARHFWSKICKPVLKEGQVCTKHKRKGSHGLEIFQRCYCGEGLACRIQKDHHQASNSSRLHTCQRH
[2]
  number of Brachyury-positive cells, factor alone: significantly reduced
[3]
  Brachyury-expressing cell population, factor alone: significantly reduce
